Values of other authors in paper PMC11794116.

Target: CD16a (F176) (Homo sapiens) (UniProt P08637)
Sequence (P08637 17-208): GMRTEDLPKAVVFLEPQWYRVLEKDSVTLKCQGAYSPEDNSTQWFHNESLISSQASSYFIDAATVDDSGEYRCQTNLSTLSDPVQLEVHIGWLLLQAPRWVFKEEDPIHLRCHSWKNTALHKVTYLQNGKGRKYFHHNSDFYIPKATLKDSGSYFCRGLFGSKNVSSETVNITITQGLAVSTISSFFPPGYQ

Substance: trastuzumab Fc
- Kd: 1.07 µM
